A short description of the series: collision cross section of modified peptide (TIMS, N2, iRT-aligned); higher = larger / more extended gas-phase ion. Put shortly:
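Collision cross section was derived from the Mason-Schamp equation. Each value averages 1–3 technical replicates of the most abundant feature per charge state, measured on a timsTOF Pro/HT in dda-PASEF mode (nitrogen, ~2.4 mbar) after a 120-min nanoflow C18 gradient at 60 °C. Synthetic peptide pools (~100 fmol/µL in 2% acetonitrile/0.1% formic acid, iRT standard spiked 1:40) were identified with MaxQuant, and 1/K0 was calibrated with three reference ions and aligned run-wise to the median iRT peptide deviation.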

[1] abbreviates: charge state: 2, modification: Acetyl (K).
Where [2] appears, read: charge state: 3, modification: Acetyl (K).
The mark [3] stands for this setting: charge state: 2, modification: GlyGly (K).
Setting [4] is: charge state: 3, modification: GlyGly (K).
Setting [5] is: charge state: 2, modification: Dimethyl (K).
Where [6] appears, read: charge state: 3, modification: Dimethyl (K).
Where [7] appears, read: charge state: 2, modification: Biotin.
The mark [8] stands for this setting: charge state: 2, modification: Glutarylation.
The mark [9] stands for this setting: charge state: 2, modification: Trimethyl (K).
Setting [10] is: charge state: 3, modification: Trimethyl (K).
Setting [11] is: charge state: 3, modification: Hydroxyproline.
[12] abbreviates: charge state: 2, modification: hydroxyisobutyryl.
[13] abbreviates: charge state: 2, modification: Phospho (Y).
Setting [14] is: charge state: 2, modification: Butyryl.
Where [15] appears, read: charge state: 3, modification: Butyryl.
The mark [16] stands for this setting: charge state: 2, modification: Citrullination (R).
[17] abbreviates: charge state: 3, modification: Methyl (R).
[18] abbreviates: charge state: 2, modification: HexNAc (ST).
[19] abbreviates: charge state: 3, modification: Phospho (Y).
Where [20] appears, read: charge state: 2, modification: Malonyl.
Where [21] appears, read: charge state: 2, modification: Succinyl.
Setting [22] is: charge state: 2, modification: Methyl (K).
Setting [23] is: charge state: 3, modification: Methyl (K).

± gives the standard deviation.

As for “VNVEAPDVNLEGLGGKLK [_VNVEAPDVNLEGLGGK(Acetyl (K))LK_]”, the collision cross section is, setting by setting: under setting [1], 460.53 ± 2.8 Å²; under setting [2], 542.09 Å².

The sequence “SDSGKPYYYNSQTK [_SDSGK(GlyGly (K))PYYYNSQTK_]” came in with a collision cross section under setting [3] of 428.35 ± 1.4 Å² and a collision cross section under setting [4] of 476.2 ± 1.7 Å².

Turning to “TTGFYSGFSEVAEKR [_TTGFYSGFSEVAEK(Dimethyl (K))R_]”, the collision cross section under setting [5] was found to be 453.39 ± 1.3 Å² and the collision cross section under setting [6] worked out at 504.73 ± 0.75 Å².

As for SGFGKFER [_SGFGK(Biotin)FER_], under setting [7], the collision cross section is recorded as 352.97 Å².

Take “TVSKVDDFLANEAK [_TVSK(Gluratylation)VDDFLANEAK_]”: the collision cross section under setting [8] was 427.28 ± 0.47 Å².

Take “INNFSADIKDSK [_INNFSADIK(Trimethyl (K))DSK_]”: the collision cross section is on record as 411.01 ± 0.61 Å² under setting [9] and 459.74 ± 1.8 Å² under setting [10].

In the case of “VETTVTSLKTK [_VETTVTSLK(Gluratylation)TK_]”, the collision cross section under setting [8] came out at 392.12 ± 0.61 Å².

“VQFAPEKPGPQPSAETTR [_VQFAPEKPGP(Hydroxyproline)QPSAETTR_]” returned a collision cross section under setting [11] of 515.21 ± 1.2 Å².

“GETASKLQSEISR [_GETASK(hydroxyisobutyryl)LQSEISR_]” returned a collision cross section under setting [12] of 394.7 ± 0.81 Å².

Sequence LQLEIDQKK [_LQLEIDQK(Formyl)K_] registered a collision cross section (charge state: 2, modification: Formyl) of 362.42 ± 1 Å².

As to “LDLSSLAYSGK [_LDLSSLAY(Phospho (Y))SGK_]”, the collision cross section under setting [13] was found to be 374.73 ± 0.68 Å².

“TFGKAAGPSLSHTSGGTQSK [_TFGK(Dimethyl (K))AAGPSLSHTSGGTQSK_]” registered a collision cross section under setting [6] of 547.87 ± 1.3 Å².

“AGQKLIDVNHYAK [_AGQK(Butyryl)LIDVNHYAK_]”: the collision cross section by setting is: under setting [14], 434.25 ± 1.1 Å²; under setting [15], 485.15 ± 2.9 Å².

Consider “VDVEVPDVSLEGPEGKLK [_VDVEVPDVSLEGPEGK(GlyGly (K))LK_]”, for which the collision cross section was found to be 462.5 ± 0.94 Å² under setting [3] and 497.08 ± 1.1 Å² under setting [4].

As to “AAYQAAIRGVGSAQSR [_AAYQAAIR(Citrullination (R))GVGSAQSR_]”, the collision cross section is 418.72 ± 0.97 Å² under setting [16] and 501.27 ± 7.8 Å² (charge state: 3, modification: Citrullination (R)).

“GYDVIAQAQSGTGK [_GY(Phospho (Y))DVIAQAQSGTGK_]” came in with a collision cross section under setting [13] of 388.75 ± 0.77 Å².

Turning to “SGKFTQQDIDEAK [_SGK(GlyGly (K))FTQQDIDEAK_]”, the collision cross section amounted to 414.34 ± 1.9 Å² under setting [3] and 476.61 ± 1.1 Å² under setting [4].

As for GGGFGAHGRGR [_GGGFGAHGR(Methyl (R))GR_], the collision cross section is, setting by setting: (charge state: 2, modification: Methyl (R)) 351.67 ± 1.1 Å²; under setting [17], 421.56 ± 5.3 Å².

For “PSVGSQSNQAGQGKR [_PSVGSQSNQAGQGK(GlyGly (K))R_]”, the collision cross section runs as follows: under setting [3], 441.17 ± 1.6 Å²; under setting [4], 461.66 ± 1.1 Å².

Regarding “TEVLSPNSKVESK [_TEVLSPNSK(Acetyl (K))VESK_]”, the collision cross section is given as 411.3 ± 1.6 Å² under setting [1] and 448.45 ± 2.4 Å² under setting [2].

As to “SPDEAYAIAKK [_SPDEAYAIAK(hydroxyisobutyryl)K_]”, the collision cross section by setting is: under setting [12], 377.18 ± 1.4 Å²; (charge state: 3, modification: hydroxyisobutyryl) 453.4 ± 3.9 Å².

Turning to PSVSTKLISK [_PSVSTK(GlyGly (K))LISK_], the collision cross section came to 370.29 ± 0.38 Å² under setting [3] and 434.33 ± 3 Å² under setting [4].

On to “ASDTSSETVFGKR [_ASDTSSETVFGK(GlyGly (K))R_]”, for which the collision cross section is, setting by setting: under setting [3], 414.9 ± 1.4 Å²; under setting [4], 487.28 ± 2 Å².

VIVGGSSEYK [_VIVGGSSEY(Phospho (Y))K_] yielded a collision cross section under setting [13] of 358.71 ± 0.065 Å².

Turning to VETFSGVYK [_VETFSGVY(Nitro (Y))K_], the collision cross section (charge state: 2, modification: Nitro (Y)) was 348.3 ± 0.55 Å².

“IPQEKCILQTDVK [_IPQEK(Butyryl)CILQTDVK_]” showed a collision cross section under setting [14] of 436.84 ± 0.53 Å² and a collision cross section under setting [15] of 487.47 ± 3.3 Å².

Regarding “APVGSVVSVPSQSSASSDK [_APVGSVVSVPSQS(HexNAc (ST))SASSDK_]”, under setting [18], the collision cross section is listed as 464.2 ± 0.14 Å².

In the case of “GVEAVGSYAENQR [_GVEAVGSY(Phospho (Y))AENQR_]”, the collision cross section worked out at 388.79 ± 0.77 Å² under setting [13] and 472.71 ± 0.98 Å² under setting [19].

With “PANEKATDDYHYEK [_PANEK(Trimethyl (K))ATDDYHYEK_]”, under setting [10], the collision cross section is 499.05 Å².

On to “ITGKNQVTATK [_ITGK(Dimethyl (K))NQVTATK_]”, for which the collision cross section by setting is: under setting [5], 369.07 ± 1.1 Å²; under setting [6], 427.9 Å².

In the case of “ASEALLKQLK [_ASEALLK(Trimethyl (K))QLK_]”, the collision cross section by setting is: under setting [9], 371.28 ± 0.027 Å²; under setting [10], 439.12 ± 1.8 Å².

Regarding “SITHSTVGSKGEK [_SITHSTVGSK(Trimethyl (K))GEK_]”, the collision cross section came to 408.54 ± 2.1 Å² under setting [9] and 473.59 ± 1.5 Å² under setting [10].

For the sequence “GFCFITYTDEEPVKK [_GFCFITYTDEEPVK(Malonyl)K_]”, the collision cross section under setting [20] was 452.98 ± 0.65 Å².

In the case of “GFGRGGAESHTFK [_GFGR(Methyl (R))GGAESHTFK_]”, under setting [17], the collision cross section came to 473.29 ± 3 Å².

TPNLYIYSKK [_TPNLYIYSK(Succinyl)K_] showed a collision cross section under setting [21] of 387.96 ± 0.52 Å².

With LAEEENKAK [_LAEEENK(Biotin)AK_], the collision cross section under setting [7] is listed as 371.22 Å².

As for “VFSIISSEKELK [_VFSIISSEK(Dimethyl (K))ELK_]”, the collision cross section by setting is: under setting [5], 416.15 ± 1.1 Å²; under setting [6], 490.22 ± 1.2 Å².

On to GEVQVSDKER [_GEVQVSDK(GlyGly (K))ER_], for which the collision cross section amounted to 370.72 ± 1.1 Å² under setting [3] and 432.88 ± 2.5 Å² under setting [4].

The sequence “SDSGKPYYYNSQTK [_SDSGK(Succinyl)PYYYNSQTK_]” showed a collision cross section under setting [21] of 423.37 ± 1.1 Å².

Sequence “GGQGPPGPQGPIGYPGPR [_GGQGPPGPQGPIGYP(Hydroxyproline)GPR_]” gave a collision cross section (charge state: 2, modification: Hydroxyproline) of 420.55 ± 2.1 Å² and a collision cross section under setting [11] of 474.06 ± 0.36 Å².

TPNLYIYSKK [_TPNLYIYSK(Acetyl (K))K_] gave a collision cross section under setting [1] of 385.54 ± 0.92 Å².

“LQEKVESAQSEQK [_LQEK(Methyl (K))VESAQSEQK_]” displayed a collision cross section under setting [22] of 410.87 ± 2 Å² and a collision cross section under setting [23] of 480.74 ± 20 Å².

Under setting [18], DVFISAAER [_DVFIS(HexNAc (ST))AAER_] displayed a collision cross section of 363.87 Å².

On to “SPSDSGYSYETIGKTTK [_SPSDSGYSYETIGK(Acetyl (K))TTK_]”, for which the collision cross section by setting is: under setting [1], 448.1 ± 2.3 Å²; under setting [2], 524.63 ± 0.47 Å².

“DLGKFQVATDALK [_DLGK(Crotonyl)FQVATDALK_]”: under “charge state: 2, modification: Crotonyl”, the collision cross section worked out at 409.72 ± 0.55 Å².

With “DTPTSAGPNSFNKGK [_DTPTSAGPNSFNK(Malonyl)GK_]”, the collision cross section under setting [20] is reported as 408.63 ± 0.58 Å².

Regarding “TQDQISNIKYHEEFEK [_TQDQISNIK(Formyl)YHEEFEK_]”, the collision cross section (charge state: 3, modification: Formyl) came to 551.65 ± 1.7 Å².

PSVSTKLISK [_PSVSTK(Acetyl (K))LISK_]: the collision cross section under setting [1] amounted to 351 ± 0.96 Å².

The sequence “TTGFYSGFSEVAEKR [_TTGFYSGFSEVAEK(Malonyl)R_]” showed a collision cross section under setting [20] of 440.22 ± 1.2 Å².

“VTLEVGKVIQQGR [_VTLEVGK(Acetyl (K))VIQQGR_]”: the collision cross section reads like this: under setting [1], 405.94 ± 0.47 Å²; under setting [2], 479.97 ± 2.5 Å².

Where the note is “charge state: 2, modification: Propionyl”, “DTPTSAGPNSFNKGK [_DTPTSAGPNSFNK(Propionyl)GK_]” yielded a collision cross section of 410.13 ± 0.64 Å².

Under setting [16], “RGATPPAPPR [_R(Citrullination (R))GATPPAPPR_]” returned a collision cross section of 332.88 ± 2.4 Å².

Consider “IHNAENIQPGEQKYEYK [_IHNAENIQPGEQK(Acetyl (K))YEYK_]”, for which the collision cross section is, setting by setting: under setting [1], 481.31 Å²; under setting [2], 525.52 ± 2.1 Å².

Regarding “SVGGSGGGSFGDNLVTR [_SVGGSGGGSFGDNLVT(HexNAc (ST))R_]”, the collision cross section under setting [18] is recorded as 423.68 ± 0.13 Å².

In the case of “SGKFTQQDIDEAK [_SGK(Methyl (K))FTQQDIDEAK_]”, the collision cross section by setting is: under setting [22], 408.84 ± 1.9 Å²; under setting [23], 468.01 ± 3.6 Å².

On to IISSIEQKEENK [_IISSIEQK(Succinyl)EENK_], for which the collision cross section under setting [21] worked out at 408.03 ± 0.55 Å² and the collision cross section (charge state: 3, modification: Succinyl) is given as 479.06 ± 2.5 Å².

On to “TLQKQSVVYGGK [_TLQK(Trimethyl (K))QSVVYGGK_]”, for which the collision cross section is, setting by setting: under setting [9], 405 ± 1.6 Å²; under setting [10], 449.39 ± 2.4 Å².

Regarding “AEGYEVAHGGR [_AEGY(Phospho (Y))EVAHGGR_]”, the collision cross section reads like this: under setting [13], 370.65 ± 0.064 Å²; under setting [19], 440.52 Å².

The values are drawn from the supplement of paper PMC10598134.
